Square brackets hold non-standard residues; d marks the D form. Peptide text beside a SMILES is read from it. * marks the point of attachment. Ala(1H-tetrazol-5-yl) = N[C@@H](Cc1nnn[nH]1)C(=O)O; Nle = CCCC[C@H](N)C(=O)O; Ms = CS(=O)(=O)*
B1: Peptide 32 (peptide)
peptide: Ac-HS[Ala(1H-tetrazol-5-yl)]AIFT[Ala(1H-tetrazol-5-yl)]SYSRYRKQAAVKKYLAAVL-NH2
SMILES: CC[C@H](C)[C@H](NC(=O)[C@H](C)NC(=O)[C@H](Cc1nnn[nH]1)NC(=O)[C@H](CO)NC(=O)[C@H](Cc1c[nH]cn1)NC(C)=O)C(=O)N[C@@H](Cc1ccccc1)C(=O)N[C@H](C(=O)N[C@@H](Cc1nnn[nH]1)C(=O)N[C@@H](CO)C(=O)N[C@@H](Cc1ccc(O)cc1)C(=O)N[C@@H](CO)C(=O)N[C@@H](CCCNC(=N)N)C(=O)N[C@@H](Cc1ccc(O)cc1)C(=O)N[C@@H](CCCNC(=N)N)C(=O)N[C@@H](CCCCN)C(=O)N[C@@H](CCC(N)=O)C(=O)N[C@@H](C)C(=O)N[C@@H](C)C(=O)N[C@H](C(=O)N[C@@H](CCCCN)C(=O)N[C@@H](CCCCN)C(=O)N[C@@H](Cc1ccc(O)cc1)C(=O)N[C@@H](CC(C)C)C(=O)N[C@@H](C)C(=O)N[C@@H](C)C(=O)N[C@H](C(=O)N[C@@H](CC(C)C)C(N)=O)C(C)C)C(C)C)[C@@H](C)O
B2: Peptide 30 (peptide)
peptide: HSXAIFTXSYSRYRKQLAVKKYLAAVL
modifications: N-terminal mesyl (Ms-); Tz (aspartic acid with carboxyl group replaced by tetrazole) at positions 3 and 8; C-terminal amide (NH2)
B3: Peptide 31 (peptide)
peptide: Ms-HS[Ala(1H-tetrazol-5-yl)]AIFT[Ala(1H-tetrazol-5-yl)]SYSRYRKQAAVKKYLAAVL-NH2
SMILES: CC[C@H](C)[C@H](NC(=O)[C@H](C)NC(=O)[C@H](Cc1nnn[nH]1)NC(=O)[C@H](CO)NC(=O)[C@H](Cc1c[nH]cn1)NS(C)(=O)=O)C(=O)N[C@@H](Cc1ccccc1)C(=O)N[C@H](C(=O)N[C@@H](Cc1nnn[nH]1)C(=O)N[C@@H](CO)C(=O)N[C@@H](Cc1ccc(O)cc1)C(=O)N[C@@H](CO)C(=O)N[C@@H](CCCNC(=N)N)C(=O)N[C@@H](Cc1ccc(O)cc1)C(=O)N[C@@H](CCCNC(=N)N)C(=O)N[C@@H](CCCCN)C(=O)N[C@@H](CCC(N)=O)C(=O)N[C@@H](C)C(=O)N[C@@H](C)C(=O)N[C@H](C(=O)N[C@@H](CCCCN)C(=O)N[C@@H](CCCCN)C(=O)N[C@@H](Cc1ccc(O)cc1)C(=O)N[C@@H](CC(C)C)C(=O)N[C@@H](C)C(=O)N[C@@H](C)C(=O)N[C@H](C(=O)N[C@@H](CC(C)C)C(N)=O)C(C)C)C(C)C)[C@@H](C)O
B4: Peptide 33 (peptide)
peptide: Ac-HA[Ala(1H-tetrazol-5-yl)]AIFT[Ala(1H-tetrazol-5-yl)]SYSRYRKQAAVKKYLAAVL-NH2
SMILES: CC[C@H](C)[C@H](NC(=O)[C@H](C)NC(=O)[C@H](Cc1nnn[nH]1)NC(=O)[C@H](C)NC(=O)[C@H](Cc1c[nH]cn1)NC(C)=O)C(=O)N[C@@H](Cc1ccccc1)C(=O)N[C@H](C(=O)N[C@@H](Cc1nnn[nH]1)C(=O)N[C@@H](CO)C(=O)N[C@@H](Cc1ccc(O)cc1)C(=O)N[C@@H](CO)C(=O)N[C@@H](CCCNC(=N)N)C(=O)N[C@@H](Cc1ccc(O)cc1)C(=O)N[C@@H](CCCNC(=N)N)C(=O)N[C@@H](CCCCN)C(=O)N[C@@H](CCC(N)=O)C(=O)N[C@@H](C)C(=O)N[C@@H](C)C(=O)N[C@H](C(=O)N[C@@H](CCCCN)C(=O)N[C@@H](CCCCN)C(=O)N[C@@H](Cc1ccc(O)cc1)C(=O)N[C@@H](CC(C)C)C(=O)N[C@@H](C)C(=O)N[C@@H](C)C(=O)N[C@H](C(=O)N[C@@H](CC(C)C)C(N)=O)C(C)C)C(C)C)[C@@H](C)O
B5: Peptide 29 (peptide)
peptide: HSXGIFTXAYSRYRKQLAVKKYLAAVL
modifications: N-terminal mesyl (Ms-); Tz (aspartic acid with carboxyl group replaced by tetrazole) at positions 3 and 8; C-terminal amide (NH2)

How the values were obtained:
[1] = Peptide stability test, phosphate buffer (pH 7.0), 40° C. storage, HPLC remaining rate; assay type: physicochemical; details: for remaining rate after correction for water, 40° C., 1 month preservation / remaining rate after correction for water, 40° C., 2 months preservation: 100 μM in phosphate buffer pH 7.0; for stability in aqueous solution (in words), 40° C. storage: phosphate buffer pH 7.0, 1 or 2 months
Description: Peptides 1 and 3 to 5 synthesized in Example 2 were weighed and dissolved in phosphate buffer (pH 7.0) to prepare 1.0 mM peptide solutions. The 1.0 mM peptide solutions were then diluted with phosphate buffer to 100 μM. After filtering with Chromatdisk (product of Merck Millipore, Millex-GV, 0.22 μm), each filtrate was dispensed into an LC vial (Waters Deactivated […] prepared peptide solutions were incubated for one month or 2 months in a 40° C. thermostatic bath to obtain stored samples. A simultaneously prepared sample among the peptide solutions that was not stored was used as a standard sample (initial sample). The standard sample and the stored samples were stored at -30° C. until sample analysis. Using the total weight of the aqueous peptide solution and storage vessel as the specimen weight, measurements were recorded as the specimen weights before storage and the specimen weights after storage under different storage conditions. The empty weight of the storage vessel was also measured, and the moisture permeability was determined by the following formula. After stirring the standard sample and the stored samples with a vortex mixer, each peptide solution was transferred to an HPLC vial (Deactivated Qsert vial by Waters Co.). Reverse-phase HPLC (HPLC system: Prominence by Shimadzu Corp.) was conducted under the conditions shown in Table 3 below for analysis of the peptide solutions, and chromatograms were obtained. Guard column: XSelect CSH C18 by Waters Co., 5 μm, 4.6×20 mm Guard Cartridge Detection wavelength: 220 nm Mobile phase A: 0.1% formic acid aqueous solution Mobile phase B: 0.1% acetonitrile formate solution Measuring time: 30 minutes Measuring sample injection rate: 50 μL Flow rate: 1.0 mL/min Sample cooler: 4° C. Column temperature: 40° C. Mobile phase delivery: The mixing ratio of mobile phase A and mobile phase B was varied as shown in Table 3 for linear concentration gradient control. The peak area value for the peptide in the chromatogram was calculated, and the remaining rate (remaining rate before correction for water) was calculated using formula (2). The remaining rate after correction for water was also calculated from the remaining rate before correction for water using formula (3), taking into account the moisture permeability of the vessel. Peptides 10 and 11 synthesized in Example 2 were weighed and dissolved in phosphate buffer (pH 7.0) to prepare 1.0 mM peptide solutions. Each solution was filtered with a Chromatdisk (product of Merck Millipore. Millex-GV, 0.22 μm). Each filtrate was diluted to 100 μM with phosphate buffer (pH 7.0) and dispensed into a tube (Protein LoBind Tube by Eppendorf Co.). The prepared peptide solutions were incubated for one month or 2 months in a 40° C. thermostatic bath to obtain stored samples. A simultaneously prepared sample among the peptide solutions that was not stored was used as a standard sample (initial sample). The standard sample and the stored samples were stored at -30° C. until sample analysis. The remaining rate after correction for water for each peptide among the stored samples was measured in the same manner as Example 4, and the results are shown in Table 8.

[2] = biological target: T1, VPAC1 receptor (UniProt P32241 31-457, limits assumed); experiment: cell-based or functional assay
T1 sequence (looked up): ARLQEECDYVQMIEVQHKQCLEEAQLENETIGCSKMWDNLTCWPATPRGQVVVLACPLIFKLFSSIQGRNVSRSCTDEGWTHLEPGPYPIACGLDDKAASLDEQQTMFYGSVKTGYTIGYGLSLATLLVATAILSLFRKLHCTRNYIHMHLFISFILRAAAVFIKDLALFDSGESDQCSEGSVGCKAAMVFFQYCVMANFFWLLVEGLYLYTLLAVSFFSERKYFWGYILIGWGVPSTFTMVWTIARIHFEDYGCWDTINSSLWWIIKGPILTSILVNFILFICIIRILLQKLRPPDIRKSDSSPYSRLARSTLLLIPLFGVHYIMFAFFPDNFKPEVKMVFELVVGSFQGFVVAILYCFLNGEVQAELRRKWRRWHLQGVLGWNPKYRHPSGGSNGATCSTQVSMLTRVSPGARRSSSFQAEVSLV

[3] = biological target: T2, PAC1 receptor (UniProt P41586 21-468, limits assumed); experiment: cell-based or functional assay
T2 sequence (looked up): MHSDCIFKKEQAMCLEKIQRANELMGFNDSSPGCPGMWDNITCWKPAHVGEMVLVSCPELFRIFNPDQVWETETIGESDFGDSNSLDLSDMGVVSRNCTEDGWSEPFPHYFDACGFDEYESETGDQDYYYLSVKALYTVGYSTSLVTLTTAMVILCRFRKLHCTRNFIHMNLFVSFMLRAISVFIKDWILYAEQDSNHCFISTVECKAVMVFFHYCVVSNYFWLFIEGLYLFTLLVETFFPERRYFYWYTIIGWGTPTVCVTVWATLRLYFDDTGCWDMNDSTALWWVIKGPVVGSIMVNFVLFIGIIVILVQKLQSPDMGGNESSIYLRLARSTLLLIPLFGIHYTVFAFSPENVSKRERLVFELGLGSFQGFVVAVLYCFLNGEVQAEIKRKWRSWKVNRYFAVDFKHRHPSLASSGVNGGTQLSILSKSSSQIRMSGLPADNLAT

[4] = Table 8, measured as in Example 4

Molecule	EC50 (VPAC1R), cAMP inducing effect [2]	EC50 (PAC1R), cAMP inducing effect [3]	other results
CC[C@H](C)[C@H](NC(=O)CNC(=O)[C@H](Cc1nnn[nH]1)NC(=O)[C@H](CO)NC(=O)[C@@H](N)Cc1c[nH]cn1)C(=O)N[C@@H](Cc1ccccc1)C(=O)N[C@H](C(=O)N[C@@H](Cc1nnn[nH]1)C(=O)N[C@@H](CO)C(=O)N[C@@H](Cc1ccc(O)cc1)C(=O)N[C@@H](CO)C(=O)N[C@@H](CCCNC(=N)N)C(=O)N[C@@H](Cc1ccc(O)cc1)C(=O)N[C@@H](CCCNC(=N)N)C(=O)N[C@@H](CCCCN)C(=O)N[C@@H](CCC(N)=O)C(=O)N[C@@H](CCSC)C(=O)N[C@@H](C)C(=O)N[C@H](C(=O)N[C@@H](CCCCN)C(=O)N[C@@H](CCCCN)C(=O)N[C@@H](Cc1ccc(O)cc1)C(=O)N[C@@H](CC(C)C)C(=O)N[C@@H](C)C(=O)N[C@@H](C)C(=O)N[C@H](C(=O)N[C@@H](CC(C)C)C(N)=O)C(C)C)C(C)C)[C@@H](C)O [Peptide 5] (H-HS[Ala(1H-tetrazol-5-yl)]GIFT[Ala(1H-tetrazol-5-yl)]SYSRYRKQMAVKKYLAAVL-NH2)	–	–	remaining rate after correction for water, 40° C., 1 month preservation ([1]; Table 4, HPLC conditions 1): 94.7%; remaining rate after correction for water, 40° C., 2 months preservation ([1]; Table 4, HPLC conditions 1): 85.6%; stability in aqueous solution (in words), 40° C. storage [1]: further increased stability over peptide 3 and peptide 4
CCCC[C@H](NC(=O)[C@H](CCC(N)=O)NC(=O)[C@H](CCCCN)NC(=O)[C@H](CCCNC(=N)N)NC(=O)[C@H](Cc1ccc(O)cc1)NC(=O)[C@H](CCCNC(=N)N)NC(=O)[C@H](CO)NC(=O)[C@H](Cc1ccc(O)cc1)NC(=O)[C@H](CO)NC(=O)[C@H](Cc1nnn[nH]1)NC(=O)[C@@H](NC(=O)[C@H](Cc1ccccc1)NC(=O)[C@@H](NC(=O)CNC(=O)[C@H](Cc1nnn[nH]1)NC(=O)[C@H](CO)NC(=O)[C@H](Cc1c[nH]cn1)NS(C)(=O)=O)[C@@H](C)CC)[C@@H](C)O)C(=O)N[C@@H](C)C(=O)N[C@H](C(=O)N[C@@H](CCCCN)C(=O)N[C@@H](CCCCN)C(=O)N[C@@H](Cc1ccc(O)cc1)C(=O)N[C@@H](CC(C)C)C(=O)N[C@@H](C)C(=O)N[C@@H](C)C(=O)N[C@H](C(=O)N[C@@H](CC(C)C)C(N)=O)C(C)C)C(C)C [Peptide 11] (Ms-HS[Ala(1H-tetrazol-5-yl)]GIFT[Ala(1H-tetrazol-5-yl)]SYSRYRKQ[Nle]AVKKYLAAVL-NH2)	–	–	remaining rate after correction for water, 40° C., 1 month preservation [1, 4]: 94.2%; remaining rate after correction for water, 40° C., 2 months preservation [1, 4]: 88.8%; stability in aqueous solution (in words), 40° C. storage [1]: stabilized to the same degree
B1	0.076 nM	0.148 nM	–
B2	0.057 nM	0.032 nM	–
B3	0.035 nM	0.034 nM	–
B4	0.143 nM	0.089 nM	–
B5	0.09 nM	0.025 nM	–

From patent US20220202905A1, “COMPOSITION FOR PREVENTING OR TREATING NEUROTROPHIC KERATITIS WHICH CONTAINS PACAP PEPTIDE OR STABILIZED PACAP PEPTIDE” (SENJU PHARMACEUTICAL CO., LTD., priority 2019, published 2022)
